Source: paper PMC4676704, “Functional Characterization of MC1R-TUBB3 Intergenic Splice Variants of the Human Melanocortin 1 Receptor” (PLoS ONE, 2015)

Target: T1, Flag-tagged Iso1, MC1R-TUBB3 in-frame intergenic splice chimera (human)
T1 construct: numbers count on: MC1R-002; Tubulin-β-III, human; A BamHI site in the TUBB3 part was ablated by site-directed mutagenesis (ATC to ATT by the printed primer, silent by my reading); also called Flag-Iso1; MC1R-TUBB3 chimeric isoform Iso1; source: HEK293T, transfected (pcDNA3); not shown: Flag, N-terminal, kept
Assay: radioligand binding; equilibrium competition binding on transfected HEK293T cells, 24 h after transfection, serum deprived 3 h; 125I-NDP-MSH 5x10^-11 M with unlabelled NDP-MSH from 10^-12 to 10^-7 M
Details: one partner purified

B1: [Nle4, D-Phe7]-αMSH (NDP-MSH), 125I-labelled (peptide)
chain: SYSLEHFRWGKPV
modifications: not fully specified; Nle at position 4; D-Phe at position 7; 125I label (tracer)
Binder B1 has a Kd of 0.59 nM.
